Assay results: US20230087378A1 (UCB, published 2023)
Where a chain is given by its changes, count along the chain named. Values joined by “and” are separate entries in the source; they are usually repeats but may differ in a detail not shown here. Identical values can stand only once.

Legend:
[1] = target: mixture of human IL-17A, IL-13 and albumin (human); assay: SPR, response of the human mixture against the sum of the single-analyte responses, mean of n = 3
[2] = target: T1, Human IL-13 (human, UniProt P35225 35-146); assay: cell-based or functional assay
[3] = target: T2, Human IL-17F (human, UniProt Q96PD4 31-163); assay: cell-based or functional assay
T2 sequence (looked up): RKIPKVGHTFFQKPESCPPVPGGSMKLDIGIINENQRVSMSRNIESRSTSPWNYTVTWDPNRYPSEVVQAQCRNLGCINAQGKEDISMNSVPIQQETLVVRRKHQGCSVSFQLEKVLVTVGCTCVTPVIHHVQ

[4] = target: T3, Human IL-17A (human, UniProt Q16552 24-155); assay: cell-based or functional assay
[5] = target: T1, Human IL-13; assay: SPR (Biacore T200), antibody captured on anti-human F(ab')2, human IL-13 as analyte, 25 C, 1:1 model
Procedure: (§1) A goat anti-human IgG, F(ab′)₂ fragment specific antibody (Jackson ImmunoResearch) was immobilised on a CM5 Sensor Chip via amine coupling chemistry to a level of approximately 5000 RU. […] At the end of each cycle the surface was regenerated at a flowrate of 10 μl/min using a 60 s injection of 50 mM HCl followed by a 30 s injection of 5 mM NaOH and a final 60 s injection of 50 mM HCl. […] Buffer blank injections were included to subtract instrument noise and drift.
(§2) Kinetic parameters were determined using a 1:1 binding model using Biacore T200 Evaluation software (version 3.0).

[6] = target: mixture of cynomolgus IL-17A, IL-13 and albumin (cynomolgus); assay: SPR, response of the cynomolgus mixture against the sum of the single-analyte responses, mean of n = 3
[7] = target: mixture of human IL-17A, IL-13 and albumin (human); assay: SPR, response of the human mixture against the sum of the single-analyte responses
[8] = target: T1, Human IL-13; assay: cell-based or functional assay; remark: listed apart in the source
[9] = target: mixture of cynomolgus IL-17A, IL-13 and albumin (cynomolgus); assay: SPR, response of the cynomolgus mixture against the sum of the single-analyte responses
[10] = target: T2, Human IL-17F; assay: cell-based or functional assay; remark: listed apart in the source
[11] = target: T4, Cyno IL-17F (cynomolgus, UniProt G7P4V0 31-163); assay: cell-based or functional assay
T4 sequence: T2 sequence (looked up) with G22E, I29T, R73K, N74H, V100L, I129V

[12] = target: T5, Cyno IL-17A (cynomolgus, UniProt A0A2K5TTB0 24-155); assay: cell-based or functional assay
[13] = target: T3, Human IL-17A; assay: cell-based or functional assay; remark: listed apart in the source
[14] = target: mixture of cynomolgus IL-17A, IL-13 and albumin (cynomolgus); assay: SPR, mixture of cynomolgus IL-13, IL-17A and albumin injected together over captured antibody
[15] = target: T6, Cyno IL-17AF (cynomolgus, UniProt A0A2K5TTB0 24-155; G7P4V0 31-163); assay: SPR (Biacore T200), antibody captured on anti-human F(ab')2, analyte in solution, 25 C, 1:1 model
T6 construct: also called Cynomolgus IL-17AF
From the text: (§3) A goat anti-human IgG, F(ab′)₂ fragment specific antibody (Jackson ImmunoResearch) was immobilised on a CM5 Sensor Chip via amine coupling chemistry to a level of approximately 5000 RU. […] Buffer blank injections were included to subtract instrument noise and drift.

[16] = target: T1, Human IL-13; assay: as above
From the text: as §3

[17] = target: T7, Cyno IL-13 (cynomolgus, UniProt Q0PW92 21-132); assay: as above
T7 construct: also called Cynomolgus IL-13
From the text: as §3

[18] = target: T2, Human IL-17F; assay: as above
From the text: as §3

[19] = target: T8, Human albumin (human, UniProt P02768 25-609); assay: as above
T8 construct: also called human serum albumin
From the text: as §3

[20] = target: T4, Cyno IL-17F; assay: as above
From the text: as §3

[21] = target: T5, Cyno IL-17A; assay: as above
From the text: as §3

[22] = target: T9, Human IL-17AF (human, UniProt Q16552 24-155; Q96PD4 31-163); assay: as above
T9 construct: also called IL-17A/F heterodimer
From the text: as §3

[23] = target: T10, Cyno albumin (cynomolgus, UniProt A2V9Z4 25-608); assay: as above
T10 construct: also called Cynomolgus albumin
From the text: as §3

[24] = target: T3, Human IL-17A; assay: as above
From the text: as §3

[25] = target: mixture of human IL-17A, IL-13 and albumin (human); assay: SPR, mixture of human IL-13, IL-17A and albumin injected together over captured antibody
[26] = target: T2, Human IL-17F; assay: SPR (Biacore T200), antibody captured on anti-human F(ab')2, human IL-17F as analyte, 25 C, 1:1 model
Procedure: as §1, §2

[27] = target: T3, Human IL-17A; assay: SPR (Biacore T200), antibody captured on anti-human F(ab')2, human IL-17A as analyte, 25 C, 1:1 model
Procedure: as §1, §2

Binding of Mixture as a Percentage of Individual Binding Responses (%), Mean [1]: 100% | inhibition of CXCL1 release from NHEK treated with a mixture of IL-13, IL-17A and IL-17F [2]: 81.3% | inhibition of CXCL1 release from NHEK treated with a mixture of IL-13, IL-17A and IL-17F [3]: 81.3% | inhibition of CXCL1 release from NHEK treated with a mixture of IL-13, IL-17A and IL-17F [4]: 81.3% | Kd [5]: 0.0258 nM | koff [5]: 0.000111 s⁻¹ | kon [5]: 3.61e+06 M⁻¹ s⁻¹ | Binding of Mixture as a Percentage of Individual Binding Responses (%), Mean [6]: 97% | Binding of Mixture as a Percentage of Individual Binding Responses (%), n = 1 [7]: 100% | Binding of Mixture as a Percentage of Individual Binding Responses (%), n = 2 [7]: 100% | Binding of Mixture as a Percentage of Individual Binding Responses (%), n = 3 [7]: 100% | IC50 for inhibition of STAT6 signalling (HEK 293 Human IL4/IL-13 SEAP reporter cells) [8]: 4.12 pM and 0.412 ng/ml | Binding of Mixture as a Percentage of Individual Binding Responses (%), n = 1 [9]: 97% | Binding of Mixture as a Percentage of Individual Binding Responses (%), n = 2 [9]: 96% | Binding of Mixture as a Percentage of Individual Binding Responses (%), n = 3 [9]: 97% | IC50, inhibition of IL-6 release from nHDF stimulated with IL-17F and TNF-α [10]: 28 nM | IC50, inhibition of IL-6 release from nHDF stimulated with IL-17F and TNF-α [11]: 34.3 nM | IC50, inhibition of IL-6 release from nHDF stimulated with IL-17A and TNF-α [12]: 0.049 nM | IC50, inhibition of IL-6 release from nHDF stimulated with IL-17A and TNF-α [13]: 0.042 nM | Binding, n = 1 (RU) [14]: 146 RU | Binding, n = 2 (RU) [14]: 141 RU | Binding, n = 3 (RU) [14]: 145 RU | Kd [15]: 0.014 nM | koff [15]: 2.87e-05 s⁻¹ | kon [15]: 2.25e+06 M⁻¹ s⁻¹ | Kd [16]: 0.026 nM | koff [16]: 3.84e-05 s⁻¹ | kon [16]: 1.46e+06 M⁻¹ s⁻¹ | Kd [17]: 0.156 nM | koff [17]: 0.000148 s⁻¹ | kon [17]: 948000 M⁻¹ s⁻¹ | Kd [18]: 0.128 nM | koff [18]: 0.000198 s⁻¹ | kon [18]: 1.67e+06 M⁻¹ s⁻¹ | Kd [19]: 2.51 nM | koff [19]: 0.000154 s⁻¹ | kon [19]: 66500 M⁻¹ s⁻¹ | Kd [20]: 0.283 nM | koff [20]: 0.000282 s⁻¹ | kon [20]: 1.14e+06 M⁻¹ s⁻¹ | Kd [21]: 0.007 nM | koff [21]: 1.24e-05 s⁻¹ | kon [21]: 1.65e+06 M⁻¹ s⁻¹ | Kd [22]: 0.015 nM | koff [22]: 4.54e-05 s⁻¹ | kon [22]: 3.7e+06 M⁻¹ s⁻¹ | Kd [23]: 2.47 nM | koff [23]: 0.000204 s⁻¹ | kon [23]: 81800 M⁻¹ s⁻¹ | Kd [24]: 0.009 nM | koff [24]: 1.57e-05 s⁻¹ | kon [24]: 2.26e+06 M⁻¹ s⁻¹ | Binding, n = 1 (RU) [25]: 81 RU | Binding, n = 2 (RU) [25]: 131 RU | Binding, n = 3 (RU) [25]: 129 RU | Kd [26]: 0.0821 nM | koff [26]: 0.000219 s⁻¹ | kon [26]: 2.66e+06 M⁻¹ s⁻¹ | Kd [27]: 0.0082 nM | koff [27]: 3.45e-05 s⁻¹ | kon [27]: 3.2e+06 M⁻¹ s⁻¹
B1: IL-13/IL-17AF multi-specific antibody (bispecific antibody)
heavy: EVQLVESGGGLVQPGGSLRLSCAASGFTFSDYNMAWVRQAPGKGLEWVATITYEGRNTYYRDSVKGRFTISRDNAKNSLYLQMNSLRAEDTAVYYCASPPQYYEGSIYRLWFAHWGQGTLVTVSSASTKGPSVFPLAPSSKSTSGGTAALGCLVKDYFPEPVTVSWNSGALTSGVHTFPAVLQSSGLYSLSSVVTVPSSSLGTQTYICNVNHKPSNTKVDKKVEPKSCSGGGGTGGGGSEVQLLESGGGLVQPGGSLRLSCAVSGIDLSNYAINWVRQAPGKCLEWIGIIWASGTTFYATWAKGRFTISRDNSKNTVYLQMNSLRAEDTAVYYCARTVPGYSTAPYFDLWGQGTLVTVSSGGGGSGGGGSGGGGSGGGGSDIQMTQSPSSVSASVGDRVTITCQSSPSVWSNFLSWYQQKPGKAPKLLIYEASKLTSGVPSRFSGSGSGTDFTLTISSLQPEDFATYYCGGGYSSISDTTFGCGTKVEIKRT
light: AIQLTQSPSSLSASVGDRVTITCRADESVRTLMHWYQQKPGKAPKLLIYLVSNSEIGVPDRFSGSGSGTDFRLTISSLQPEDFATYYCQQTWSDPWTFGQGTKVEIKRTVAAPSVFIFPPSDEQLKSGTASVVCLLNNFYPREAKVQWKVDNALQSGNSQESVTEQDSKDSTYSLSSTLTLSKADYEKHKVYACEVTHQGLSSPVTKSFNRGECSGGGGSGGGGSEVQLVQSGAEVKKPGSSVKVSCKASGYSFTSYYIHWVRQAPGQCLEWMGRIGPGSGDINYNEKFKGRATFTVDKSTSTAYMELSSLRSEDTAVYYCARFHYDGADWGQGTLVTVSSGGGGSGGGGSGGGGSGGGGSDIQMTQSPSSLSASVGDRVTITCKASQNINENLDWYQQKPGKAPKLLIYYTDILQTGIPSRFSGSGSGTDYTLTISSLQPEDFATYYCYQYYSGYTFGCGTKLEIKRT
notes: also called UCBXXXX; IL-17AF-IL-13 multi-specific antibody
